Data taken from patent US20160039947A1 (Eli Lilly, published 2016).

Tests used:
[1] = biological target: T1, hHER-2-Fc (human, UniProt P04626 23-652); assay: sandwich ELISA: hHER-2-Fc coated, BsAb, hEGFR-Fc-biotin detection
T1 construct: Coated unlabelled in the sandwich ELISA; biotinylated and captured on an SA chip in the SPR assay; also called human HER-2-Fc; hHER-2-Fc-biotin; not shown: Fc part of the bought fusion protein
Description: (§1) Two sandwich ELISAs are developed, one for detecting anti-HER-2/anti-EGFR BsAb activity and one for detecting anti-cMET/anti-Axl BsAb activity. For both ELISAs, clear 96-well round bottom high binding Immulon microtiter plates (Greiner bio-one, cat#650061) are coated overnight at 2-8° C. with 50 μL/well 1 μg/mL hHER-2-Fc or 1 μg/mL hHGFR(cMet)-Fc (both from R&D systems) in a 50 mM Na₂CO₃ pH 8 buffer. The plates are washed 4 times with PB ST and blocked with 100 μL/well casein buffer (Pierce) for 1 hr at 37° C. The plates are then washed 4 times with PBST and the parental IgG controls or BsAb IgG test articles are added at 50 μL/well and 5 μg/mL and serially diluted 1:3 down the plate. The test articles are incubated on the plate for 1 hr at 37° C. The plates are then washed 4 times with PBST and 50 μL/well 0.2 μg/mL hEGFR-Fc-biotin or hAxl-Fc-biotin (both from R&D systems) is added for 1 hr at 37° C. The plates are then washed 4 times with PBST followed by the addition of a 50 μL/well streptavidin-HRP (Jackson Labs) diluted 1:2000 in PBST. The streptavidin-HRP is incubated in each well for 1 hr at 37° C. The plates are then washed 4 times with PBST and 100 μL/well 1-component TMB substrate is added (KPL laboratories). After approximately 10 minutes, 100 mL/well 1% H₃PO₄ (in H₂O) is added to each plate to quench the reaction. Absorbance (450 nm) of every well in the plates is read using a SpectraMax UV plate reader (Molecular Devices). Biotin-labeling of the hEGFR-Fc and hAxl-Fc proteins is performed using EZ-Link Sulfo-NHS-LC-Biotin (Thermo Scientific) according to the manufacturer's protocol.

[2] = biological target: T2, hEGFR-Fc (human, UniProt P00533 25-645); assay: as above
T2 construct: Biotin-labelled (EZ-Link Sulfo-NHS-LC-Biotin) as detection reagent in the ELISA; unlabelled second injection in SPR; also called hEGFR-Fc-biotin; not shown: Fc part of the bought fusion protein
Description: as §1

[3] = biological target: T3, hHGFR(cMet)-Fc (human, UniProt P08581 25-932); assay: sandwich ELISA: hHGFR(cMet)-Fc coated, IgG, hAxl-Fc-biotin detection
T3 construct: Coated in the sandwich ELISA; second injection in SPR; not shown: Fc part of the bought fusion protein
Description: as §1, with “After approximately 10 minutes, 100 mL/well 1% H₃PO₄ (in H₂O) is added to each plate to quench the reaction.” left out, “Biotin-labeling of the hEGFR-Fc and hAxl-Fc proteins is performed using EZ-Link Sulfo-NHS-LC-Biotin (Thermo Scientific) according to the manufacturer's protocol.” left out

[4] = biological target: T1, hHER-2-Fc; assay: sandwich ELISA: hHER-2-Fc coated, IgG, hEGFR-Fc-biotin detection
Description: as §1, with “After approximately 10 minutes, 100 mL/well 1% H₃PO₄ (in H₂O) is added to each plate to quench the reaction.” left out, “Biotin-labeling of the hEGFR-Fc and hAxl-Fc proteins is performed using EZ-Link Sulfo-NHS-LC-Biotin (Thermo Scientific) according to the manufacturer's protocol.” left out

T3 sequence (P08581 25-932): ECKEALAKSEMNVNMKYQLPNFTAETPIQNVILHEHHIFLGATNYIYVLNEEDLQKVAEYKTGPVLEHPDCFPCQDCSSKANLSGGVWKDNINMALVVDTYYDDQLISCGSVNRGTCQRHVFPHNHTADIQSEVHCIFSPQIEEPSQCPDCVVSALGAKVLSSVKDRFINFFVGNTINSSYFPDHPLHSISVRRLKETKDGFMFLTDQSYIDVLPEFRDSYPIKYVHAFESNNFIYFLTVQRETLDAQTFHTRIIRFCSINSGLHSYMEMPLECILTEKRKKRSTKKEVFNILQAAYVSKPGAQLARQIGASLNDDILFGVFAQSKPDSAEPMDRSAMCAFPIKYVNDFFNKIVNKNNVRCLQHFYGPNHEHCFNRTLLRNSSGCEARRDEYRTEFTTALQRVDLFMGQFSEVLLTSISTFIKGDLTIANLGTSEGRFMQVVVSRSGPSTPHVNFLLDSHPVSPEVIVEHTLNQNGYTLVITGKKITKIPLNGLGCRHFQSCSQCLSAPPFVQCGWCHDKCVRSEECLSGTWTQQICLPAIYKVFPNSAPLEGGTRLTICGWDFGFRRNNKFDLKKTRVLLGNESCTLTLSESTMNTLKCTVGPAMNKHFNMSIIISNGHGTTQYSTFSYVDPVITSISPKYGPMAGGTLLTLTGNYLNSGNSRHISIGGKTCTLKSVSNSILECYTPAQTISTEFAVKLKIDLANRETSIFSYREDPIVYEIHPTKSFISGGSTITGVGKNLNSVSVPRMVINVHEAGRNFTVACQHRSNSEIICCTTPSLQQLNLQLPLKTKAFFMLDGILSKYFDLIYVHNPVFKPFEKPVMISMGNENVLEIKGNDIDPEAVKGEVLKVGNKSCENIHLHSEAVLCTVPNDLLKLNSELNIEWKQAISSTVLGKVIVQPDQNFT

binding result [1]	binding result [2]	Binder	binding result [3]	binding result [4]
binds	binds	HEDesign κλ (anti-HER-2/anti-EGFR IgG BsAb with Fab redesigns) (bispecific antibody, also called HE Designs) heavy 1: EVQLVESGGGLVQPGGSLRLSCAASGFTFTDYTMDWVRKAPGKGLEWVADVNPNSGGSIYNQEFKGRFTLSVDRSKNTLYLQMNSLRAEDTAVYYCARNLGPSFYFDYWGQGTLVTVSSASTKGPSVFPLAPSSKSTSGGTAALGCLVKDYFPEPVTVSWNSGALTSGVATGPAVLQSSGLYSLSSVVTVPSSSLGTQTYICNVNHKPSNTKVDKKVEPKSCDKTHTCPPCPAPELLGGPSVFLFPPKPKDTLMISRTPEVTCVVVDVSHEDPEVKFNWYVDGVEVHNAKTKPREEQYQSTYRVVSVLTVLHQDWLNGKEYKCKVSNKALPAPIEKTISKAKGQPREPQVYTLPPSRDELTKNQVSLTCLVKGFYPSDIAVEWESNGQPENNYDTTPPVLDSDGSFFLYSDLTVDKSRWQQGNVFSCSVMHEALHNHYTQKSLSLSPG light 1: RIQMTQSPSSLSASVGDRVTITCKASQDVSIGVAWYQDKPGKAPKLLIYSASYRYTGVPSRFSGSGSGTDFTLTISSLQPEDFATYYCQQYYIYPYTFGQGTKVEIKRTVAAPSVFIFPPSDEQLKSGTASVVCYLNNFYPREAKVQWKVDNALQSGNSQESVTEQDSKDSTYSLWSTLTLSKADYEKHKVYACEVTHQGLSSPVTKSFNRGEC heavy 2: QVQLVQSGAEVKKPGASVKVSCKASGYTFTSHWMHWVRYAPGQGLEWIGEFNPSNGRTNYNEKFKSKATMTVDTSTNTAYMELSSLRSEDTAVYYCASRDYDYDGRYFDYWGQGTLVTVSSASTKGPSVFPLAPSSKSTSGGTAALGCLVKDYFPEPVTVSWNSGALTSGVHTFPAVLQSSGLYSLSSVVTVPSSSLGTQTYICNVNHKPSNTKVDKKVEPKSCDKTHTCPPCPAPELLGGPSVFLFPPKPKDTLMISRTPEVTCVVVDVSHEDPEVKFNWYVDGVEVHNAKTKPREEQYQSTYRVVSVLTVLHQDWLNGKEYKCKVSNKALPAPIEKTISKAKGQPREPQVYTLPPSRKELTKNQVSLTCLVKGFYPSDIAVEWESNGQPENNYKTTPPVLKSDGSFFLYSKLTVDKSRWQQGNVFSCSVMHEALHNHYTQKSLSLSPG light 2: DIQMTQSPSSLSASVGDRVTITCSASSSVTYMYWYQRKPGKAPKLLIYDTSNLASGVPSRFSGSGSGTDYTFTISSLQPEDIATYYCQQWSSHIFTFGQGTKVEIKGQPKAAPSVTLFPPSSEELQANKATLVCLISDFYPGAVTVAWKADSSPVKAGVETTTPSKQSNNKYAASSYLSLTPEQWKSHRSYSCQVTHEGSTVEKTVAPTEC		
binds	binds	HEDesign λκ (anti-HER-2/anti-EGFR IgG BsAb with Fab redesigns) (bispecific antibody, also called HE Designs) heavy 1: EVQLVESGGGLVQPGGSLRLSCAASGFTFTDYTMDWVRKAPGKGLEWVADVNPNSGGSIYNQEFKGRFTLSVDRSKNTLYLQMNSLRAEDTAVYYCARNLGPSFYFDYWGQGTLVTVSSASTKGPSVFPLAPSSKSTSGGTAALGCLVKDYFPEPVTVSWNSGALTSGVATGPAVLQSSGLYSLSSVVTVPSSSLGTQTYICNVNHKPSNTKVDKKVEPKSCDKTHTCPPCPAPELLGGPSVFLFPPKPKDTLMISRTPEVTCVVVDVSHEDPEVKFNWYVDGVEVHNAKTKPREEQYQSTYRVVSVLTVLHQDWLNGKEYKCKVSNKALPAPIEKTISKAKGQPREPQVYTLPPSRDELTKNQVSLTCLVKGFYPSDIAVEWESNGQPENNYDTTPPVLDSDGSFFLYSDLTVDKSRWQQGNVFSCSVMHEALHNHYTQKSLSLSPG light 1: RIQMTQSPSSLSASVGDRVTITCKASQDVSIGVAWYQDKPGKAPKLLIYSASYRYTGVPSRFSGSGSGTDFTLTISSLQPEDFATYYCQQYYIYPYTFGQGTKVEIKGQPKAAPSVTLFPPSSEELQANKATLVCYISDFYPGAVTVAWKADSSPVKAGVETTTPSKQSNNKYAAWSYLSLTPEQWKSHRSYSCQVTHEGSTVEKTVAPTEC heavy 2: QVQLVQSGAEVKKPGASVKVSCKASGYTFTSHWMHWVRYAPGQGLEWIGEFNPSNGRTNYNEKFKSKATMTVDTSTNTAYMELSSLRSEDTAVYYCASRDYDYDGRYFDYWGQGTLVTVSSASTKGPSVFPLAPSSKSTSGGTAALGCLVKDYFPEPVTVSWNSGALTSGVHTFPAVLQSSGLYSLSSVVTVPSSSLGTQTYICNVNHKPSNTKVDKKVEPKSCDKTHTCPPCPAPELLGGPSVFLFPPKPKDTLMISRTPEVTCVVVDVSHEDPEVKFNWYVDGVEVHNAKTKPREEQYQSTYRVVSVLTVLHQDWLNGKEYKCKVSNKALPAPIEKTISKAKGQPREPQVYTLPPSRKELTKNQVSLTCLVKGFYPSDIAVEWESNGQPENNYKTTPPVLKSDGSFFLYSKLTVDKSRWQQGNVFSCSVMHEALHNHYTQKSLSLSPG light 2: DIQMTQSPSSLSASVGDRVTITCSASSSVTYMYWYQRKPGKAPKLLIYDTSNLASGVPSRFSGSGSGTDYTFTISSLQPEDIATYYCQQWSSHIFTFGQGTKVEIKRTVAAPSVFIFPPSDEQLKSGTASVVCLLNNFYPREAKVQWKVDNALQSGNSQESVTEQDSKDSTYSLSSTLTLSKADYEKHKVYACEVTHQGLSSPVTKSFNRGEC		

The remaining lines, values behind:

Binder	binding result [1]	binding result [2]	binding result [3]	binding result [4]
HEDesign λλ (anti-HER-2/anti-EGFR IgG BsAb with Fab redesigns) (bispecific antibody, also called HE Designs) heavy 1: EVQLVESGGGLVQPGGSLRLSCAASGFTFTDYTMDWVRKAPGKGLEWVADVNPNSGGSIYNQEFKGRFTLSVDRSKNTLYLQMNSLRAEDTAVYYCARNLGPSFYFDYWGQGTLVTVSSASTKGPSVFPLAPSSKSTSGGTAALGCLVKDYFPEPVTVSWNSGALTSGVATGPAVLQSSGLYSLSSVVTVPSSSLGTQTYICNVNHKPSNTKVDKKVEPKSCDKTHTCPPCPAPELLGGPSVFLFPPKPKDTLMISRTPEVTCVVVDVSHEDPEVKFNWYVDGVEVHNAKTKPREEQYQSTYRVVSVLTVLHQDWLNGKEYKCKVSNKALPAPIEKTISKAKGQPREPQVYTLPPSRDELTKNQVSLTCLVKGFYPSDIAVEWESNGQPENNYDTTPPVLDSDGSFFLYSDLTVDKSRWQQGNVFSCSVMHEALHNHYTQKSLSLSPG light 1: RIQMTQSPSSLSASVGDRVTITCKASQDVSIGVAWYQDKPGKAPKLLIYSASYRYTGVPSRFSGSGSGTDFTLTISSLQPEDFATYYCQQYYIYPYTFGQGTKVEIKGQPKAAPSVTLFPPSSEELQANKATLVCYISDFYPGAVTVAWKADSSPVKAGVETTTPSKQSNNKYAAWSYLSLTPEQWKSHRSYSCQVTHEGSTVEKTVAPTEC heavy 2: QVQLVQSGAEVKKPGASVKVSCKASGYTFTSHWMHWVRYAPGQGLEWIGEFNPSNGRTNYNEKFKSKATMTVDTSTNTAYMELSSLRSEDTAVYYCASRDYDYDGRYFDYWGQGTLVTVSSASTKGPSVFPLAPSSKSTSGGTAALGCLVKDYFPEPVTVSWNSGALTSGVHTFPAVLQSSGLYSLSSVVTVPSSSLGTQTYICNVNHKPSNTKVDKKVEPKSCDKTHTCPPCPAPELLGGPSVFLFPPKPKDTLMISRTPEVTCVVVDVSHEDPEVKFNWYVDGVEVHNAKTKPREEQYQSTYRVVSVLTVLHQDWLNGKEYKCKVSNKALPAPIEKTISKAKGQPREPQVYTLPPSRKELTKNQVSLTCLVKGFYPSDIAVEWESNGQPENNYKTTPPVLKSDGSFFLYSKLTVDKSRWQQGNVFSCSVMHEALHNHYTQKSLSLSPG light 2: DIQMTQSPSSLSASVGDRVTITCSASSSVTYMYWYQRKPGKAPKLLIYDTSNLASGVPSRFSGSGSGTDYTFTISSLQPEDIATYYCQQWSSHIFTFGQGTKVEIKGQPKAAPSVTLFPPSSEELQANKATLVCLISDFYPGAVTVAWKADSSPVKAGVETTTPSKQSNNKYAASSYLSLTPEQWKSHRSYSCQVTHEGSTVEKTVAPTEC	binds	binds		
Anti-Axl IgG1 (AxlG1) (antibody, V domains shown, also called anti-Axl antibody YW327.6S2 control IgG) VH: EVQLVESGGGLVQPGGSLRLSCAASGFSLSGSWIHWVRQAPGKGLEWVGWINPYRGYAYYADSVKGRFTISADTSKNTAYLQMNSLRAEDTAVYYCAREYSGWGGSSVGYAMDYWGQGTLVTVSS VL: DIQMTQSPSSLSASVGDRVTITCRASQDVSTAVAWYQQKPGKAPKLLIYSASFLYSGVPSRFSGSGSGTDFTLTISSLQPEDFATYYCQQSYTTPPTFGQGTKVEIKG			no binding (tested: 5 µg/mL, serially diluted 1:3)	
matuzumab IgG1 (mG1) (antibody, V domains shown, also called matuzumab (anti-EGFR) control IgG) VH: QVQLVQSGAEVKKPGASVKVSCKASGYTFTSHWMHWVRQAPGQGLEWIGEFNPSNGRTNYNEKFKSKATMTVDTSTNTAYMELSSLRSEDTAVYYCASRDYDYDGRYFDYWGQGTLVTVSS VL: DIQMTQSPSSLSASVGDRVTITCSASSSVTYMYWYQQKPGKAPKLLIYDTSNLASGVPSRFSGSGSGTDYTFTISSLQPEDIATYYCQQWSSHIFTFGQGTKVEIKG				no binding (tested: 5 µg/mL, serially diluted 1:3)
